Where no end group is shown, it is not given here. [ ]: non-standard residue; d: D form. Aib = CC(C)(N)C(=O)O

Here are results for twelve molecules from patent EP4342487A2, “PHARMACEUTICAL COMPOSITION COMPRISING GIP DERIVATIVE OR LONG-ACTING CONJUGATE THEREOF FOR PREVENTING OR TREATING PULMONARY DISEASE” (Hanmi Pharm. Co., Ltd., priority 2021, dated 2022).

The assay addresses T1, human GIP receptor (human, UniProt P48546 22-466).
T1 sequence (looked up): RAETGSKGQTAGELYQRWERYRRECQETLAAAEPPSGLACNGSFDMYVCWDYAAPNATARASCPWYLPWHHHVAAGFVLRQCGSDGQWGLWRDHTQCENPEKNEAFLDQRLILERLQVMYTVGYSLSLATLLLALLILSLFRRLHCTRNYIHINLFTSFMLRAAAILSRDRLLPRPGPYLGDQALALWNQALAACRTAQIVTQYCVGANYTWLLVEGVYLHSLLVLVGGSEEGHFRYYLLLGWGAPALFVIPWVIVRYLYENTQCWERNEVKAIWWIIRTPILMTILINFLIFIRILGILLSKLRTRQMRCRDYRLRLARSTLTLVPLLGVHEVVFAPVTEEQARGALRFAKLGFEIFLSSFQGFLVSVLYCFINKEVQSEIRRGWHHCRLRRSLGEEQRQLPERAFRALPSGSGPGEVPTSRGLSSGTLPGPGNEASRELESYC
Briefly: cell-based or functional assay.
Turning to Y[Aib]EGTFISDYSI[Aib]LDKQAA[Aib]EFVNWLL[Aib]GHPSSGAPPPSC (not fully specified) [GIP derivative of SEQ ID NO: 24], the “In vitro activity (%) of GIP derivatives compared to human native GIP in human GIP receptors (EC50 from accumulated cAMP, CHO cells expressing the human GIP receptor)” value (“In vitro activity (%) of GIP derivatives” for short) came out at 183%.
With Y[Aib]EGTFISDYSIYLDKQAQKEFVNWLL[Aib]GGPSSGAPPPSC (not fully specified) [GIP derivative of SEQ ID NO: 23] the figure was 87.6%; with Y[Aib]EGTFISDYSIYLDKQAA[Aib]EFVNWLLAGHPSSGAPPPSC (not fully specified) [GIP derivative of SEQ ID NO: 22], 71.6%; with Y[Aib]EGTFISDYSI[Aib]MDAIAQQDFVNWLLAGGPSSGAPPPSC (not fully specified) [GIP derivative of SEQ ID NO: 3], 15.6%.
With Y[Aib]EGTFISDYSIYLDKQAA[Aib]EFVQWLI[Aib]GGPSSGAPPPSC (not fully specified) [GIP derivative of SEQ ID NO: 25] the figure was 78.3%; with Y[Aib]EGTFISDYSIYMDAIAQQDFVNWLLAGGPSSGAPPPSC (not fully specified) [GIP derivative of SEQ ID NO: 4], 10.5%; with Y[Aib]EGTFISDYSIYLDAQAA[Aib]DFVNWLLAGGPSSGAPPPSC (not fully specified) [GIP derivative of SEQ ID NO: 8], 1.9%.
With Y[Aib]EGTFISDYSIQMDAIAQQDFVNWLLAGGPSSGAPPPSC (not fully specified) [GIP derivative of SEQ ID NO: 5] the figure was 12.1%; with Y[Aib]EGTFISDYSIYLDAQAAKDFVNWLLAGGPSSGAPPPSC (not fully specified) [GIP derivative of SEQ ID NO: 9], 2%; with Y[Aib]EGTFISDYSIYLDKQAA[Aib]EFVQWLIAGHPSSGAPPPC (not fully specified) [GIP derivative of SEQ ID NO: 26], 66.7%.
Regarding Y[Aib]EGTFISDYSIYLDAIAQQDFVNWLLAGGPSSGAPPPSC (not fully specified) [GIP derivative of SEQ ID NO: 6], the “In vitro activity (%) of GIP derivatives” value was determined as 17.4%.
As to Y[Aib]EGTFISDYSIYLDAQAQQDFVNWLLAGGPSSGAPPPSC (not fully specified) [GIP derivative of SEQ ID NO: 7], the “In vitro activity (%) of GIP derivatives” value came out at 19.6%.
